# From patent publication US20240132578A1
# Experiments:
# Assay in all cases: cell-based or functional assay
# [1] = molecular target: HIV-1 92UG005 envelope protein (Env) on pseudovirus (HIV-1)
# [2] = molecular target: HIV-1 Env of isolate 92UG046 (pseudovirus) (HIV-1)
# [3] = molecular target: HIV-1 Env of isolate 92UG114 (pseudovirus) (HIV-1)
# [4] = molecular target: HIV-1 Env of isolate CAAN.A2 (HIV-1)
# [5] = molecular target: HIV-1 Env of isolate MGRM-A-012 (subtype A) (HIV-1)
# [6] = molecular target: HIV-1 Env of isolate MGRM-AE-007 (subtype AE) (HIV-1)
# [7] = molecular target: HIV-1 Env of isolate MGRM-D-022 (pseudovirus) (HIV-1)
# [8] = molecular target: HIV-1 Env of isolate MGRM-D-028 (HIV-1)
# [9] = molecular target: HIV-1 Env of isolate MGRM-F1-008 (HIV-1)
# [10] = molecular target: HIV-1 Env of isolate MGRM-F1-013 (HIV-1)
# [11] = molecular target: HIV-1 Env of isolate MGRM-F1-020 (HIV-1)
# [12] = molecular target: HIV-1 Env of pseudovirus isolate MGRM-C-013 (clade C) (HIV-1)
# [13] = molecular target: HIV-1 Env of pseudovirus isolate MGRM-C-025 (clade C) (HIV-1)
# [14] = molecular target: HIV-1 JR-CSF Env S334A (HIV-1 isolate JR-CSF) (UniProt P20871)
# [15] = molecular target: HIV-1 JR-CSF Env S393A (HIV-1 (isolate JR-CSF)) (UniProt P20871)
# [16] = molecular target: HIV-1 92BR020 envelope (Env) on pseudovirus (HIV-1)
# [17] = molecular target: HIV-1 92RW024 envelope glycoprotein (Env) on pseudovirus (HIV-1 (clade A))
# [18] = molecular target: HIV-1 Env of isolate MGRM-D-001 (clade D pseudovirus) (HIV-1)
# [19] = molecular target: HIV-1 Env of isolate MGRM-D-003 (clade D pseudovirus) (HIV-1)
# [20] = molecular target: HIV-1 Env of isolate TRO.11 (Acute), clade B (HIV-1)
# [21] = molecular target: HIV-1 Env of pseudovirus MGRM-F1-015 (clade F) (HIV-1)
# [22] = molecular target: HIV-1 Env of pseudovirus MGRM-G-015 (HIV-1)
# [23] = molecular target: HIV-1 Env of pseudovirus MGRM-G-027 (HIV-1)
# [24] = molecular target: HIV-1 MGRM-AG-008 Env (pseudovirus) (HIV-1)
# [25] = molecular target: HIV-1 MGRM-AG-011 Env (pseudovirus) (HIV-1)
# [26] = molecular target: HIV-1 MGRM-AG-012 Env (pseudovirus) (HIV-1)
# [27] = molecular target: HIV-1 envelope glycoprotein (Env) of isolate LAVI_C22 (HIV-1)
# [28] = molecular target: HIV-1 envelope glycoprotein (Env) of isolate MGRM-C-013 (HIV-1)
# [29] = molecular target: HIV-1 envelope glycoprotein (Env) of isolate MGRM-C-025 (HIV-1)
# [30] = molecular target: HIV-1 Env of isolate MGRM-F1-013 (pseudovirus) (HIV-1)
# [31] = molecular target: HIV-1 Env of isolate MGRM-F1-022 (pseudovirus) (HIV-1)
# [32] = molecular target: HIV-1 envelope glycoprotein (Env) of isolate 94UG103, subtype A (HIV-1)
# [33] = molecular target: HIV-1 envelope glycoprotein (Env) of isolate MG RM-A-006, subtype A (HIV-1)
# [34] = molecular target: HIV-1 envelope glycoprotein (Env) of isolate MGRM-Chronic-B-002, on pseudovirus (HIV-1)
# [35] = molecular target: HIV-1 envelope glycoprotein (Env) of isolate SC422661.8, on pseudovirus (HIV-1)
# Sequence of 1443_C16 (PG16) (TCN-116) (antibody) (VH): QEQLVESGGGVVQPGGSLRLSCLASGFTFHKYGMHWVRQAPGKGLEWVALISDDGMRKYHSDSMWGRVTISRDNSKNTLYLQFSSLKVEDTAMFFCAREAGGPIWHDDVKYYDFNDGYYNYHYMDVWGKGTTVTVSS
# Sequence of 1443_C16 (PG16) (TCN-116) (antibody) (VL): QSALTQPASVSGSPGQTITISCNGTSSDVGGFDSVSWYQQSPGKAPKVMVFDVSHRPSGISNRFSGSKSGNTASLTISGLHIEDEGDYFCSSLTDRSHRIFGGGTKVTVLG
Substance,"IC50 (ug/mL), pseudovirus neutralization [1] [µg/mL]",Fold IC50 increase relative to wild-type [14] [fold],Fold IC50 increase relative to wild-type (pseudovirus neutralization) [15] [fold],neutralization IC50 [16] [µg/mL],"IC50 (µg/ml), pseudovirus neutralization [17] [µg/mL]","IC50, pseudovirus neutralization [18] [µg/mL]","IC50, pseudovirus neutralization [19] [µg/mL]","IC50 (µg/ml), pseudovirus neutralization [20] [µg/mL]",IC50 [21] [µg/mL],"IC50 (µg/ml), pseudovirus neutralization [22] [µg/mL]","IC50 (µg/ml), pseudovirus neutralization [23] [µg/mL]","IC50 (µg/ml), pseudovirus neutralization [24] [µg/mL]","IC50 (µg/ml), pseudovirus neutralization [25] [µg/mL]","IC50 (µg/ml), pseudovirus neutralization [26] [µg/mL]","IC50 (µg/ml), pseudovirus neutralization [27] [µg/mL]","IC50 (µg/ml), pseudovirus neutralization [28] [µg/mL]","IC50 (µg/ml), pseudovirus neutralization [29] [µg/mL]",further results
5147_N06 (PGT-130) (antibody),0.474,0.5,0.7,,,,,,,,,,,,,,,"IC50 (µg/mL), pseudovirus neutralization [2]: > 50 µg/mL; IC50 (µg/mL), pseudovirus neutralization [3]: > 50 µg/mL; IC50 (µg/mL), pseudovirus neutralization [4]: > 50 µg/mL; IC50, pseudovirus neutralization [5]: > 50 µg/mL; IC50, pseudovirus neutralization [6]: 0.083 µg/mL; IC50 (µg/mL), pseudovirus neutralization [7]: > 50 µg/mL; IC50 (µg/mL), pseudovirus neutralization [8]: 0.825 µg/mL; IC50 (µg/mL), pseudovirus neutralization [9]: 0.065 µg/mL; IC50 (µg/mL), pseudovirus neutralization [10]: > 50 µg/mL; IC50 (µg/mL), pseudovirus neutralization [11]: 9.73 µg/mL; IC50, pseudovirus neutralization [12]: > 50 µg/mL; IC50, pseudovirus neutralization [13]: > 50 µg/mL"
2F5 (antibody),,,,> 50,8.22,0.63,> 50,> 50,0.1,0.43,0.28,0.54,> 50,0.33,> 50,18.4,> 50,
2G12 (antibody),,,,2.26,> 50,> 50,> 50,0.29,> 50,> 50,> 50,> 50,> 50,1.94,> 50,> 50,> 50,
5141_B17 (PGT-126) (antibody),0.0181,> 30,0.5,,,,,,,,,,,,,,,"IC50 (µg/mL), pseudovirus neutralization [30]: > 50 µg/mL; IC50 (µg/mL), pseudovirus neutralization [31]: > 50 µg/mL; IC50, pseudovirus neutralization [32]: 0.008 µg/mL; IC50, pseudovirus neutralization [33]: > 50 µg/mL; IC50, pseudovirus neutralization [34]: 0.078 µg/mL; IC50, pseudovirus neutralization [35]: 0.119 µg/mL"
5343_B08 (PGT-135) (antibody),> 10,> 30,0.9,,,,,,,,,,,,,,,"IC50 (µg/mL), pseudovirus neutralization [2]: > 50 µg/mL; IC50 (µg/mL), pseudovirus neutralization [3]: 1.29 µg/mL; IC50 (µg/mL), pseudovirus neutralization [4]: 5.15 µg/mL; IC50, pseudovirus neutralization [5]: > 50 µg/mL; IC50, pseudovirus neutralization [6]: > 50 µg/mL; IC50 (µg/mL), pseudovirus neutralization [7]: > 50 µg/mL; IC50 (µg/mL), pseudovirus neutralization [8]: > 50 µg/mL; IC50 (µg/mL), pseudovirus neutralization [9]: > 50 µg/mL; IC50 (µg/mL), pseudovirus neutralization [10]: 21.1 µg/mL; IC50 (µg/mL), pseudovirus neutralization [11]: 0.168 µg/mL; IC50, pseudovirus neutralization [12]: > 50 µg/mL; IC50, pseudovirus neutralization [13]: > 50 µg/mL"
1495_C14 (PGC14) (antibody),,,,0.637,> 50,> 50,> 50,> 50,> 50,> 50,> 50,45,> 50,> 50,25,> 50,> 50,
1443_C16 (PG16) (TCN-116) (antibody),,,,> 50,0.08,> 50,0.01,0.22,> 50,5.33,0.01,0.002,0.002,25.1,0.02,> 50,0.04,
b12 (antibody),,,,27.5,> 50,> 50,> 50,> 50,> 50,> 50,> 50,> 50,> 50,10.4,7.64,> 50,> 50,
4858_P08 (PGT-123) (antibody),2.49,> 50,0.6,,,,,,,,,,,,,,,"IC50 (µg/mL), pseudovirus neutralization [30]: 0.08 µg/mL; IC50 (µg/mL), pseudovirus neutralization [31]: 0.075 µg/mL; IC50, pseudovirus neutralization [32]: 0.678 µg/mL; IC50, pseudovirus neutralization [33]: > 50 µg/mL; IC50, pseudovirus neutralization [34]: 0.234 µg/mL; IC50, pseudovirus neutralization [35]: 0.039 µg/mL"
4E10 (antibody),,,,41.4,8.88,1.84,2.49,1.39,0.53,1.07,1.19,1.48,1.36,0.86,2.02,2.1,5.58,
